Consider 10 molecules from patent publication US20210347914A1 (BANYAN BIOMARKERS, published 2021).

Numbering of substitutions follows the chain as printed.

B1: UCH-L1-2 (antibody, V domains shown)
VH: EVMLVESGGGLVKPGGSLKLSCAASGFIFSSHAMSWIRQIPEKRLEWVATISSGGSNTYYPDSVKGRFTISRDNAKNILYLQMSSLRSEDTAIYYCTRHGEVRRGYYFDYWGQGTTLTVSS
VL: DIQMTQTPSSLSASLGDRVTISCSASQGITNYLNWYQQKPDGTVKLLIYYTSSLHSGVPSRFSGSGSGTDYSLTISNLEPEDFATYYCQHYSNLPWTFGGGTKLEIK
notes: also called mouse anti-UCH-L1 antibody UCH-L1-2
B2: UCH-L1-1 (antibody, V domains shown)
VH: QVQLQQPGSELVRPGASVKLSCKASGYTFTSYWMHWVKQRPGQGLEWIGNIYPGSGSTNYDEKFKSKATLTVDTSSSTAYMQLSSLTSEDSAVYYCTREDYWGQGTTLTVSS
VL: DVLMTQTPLSLPVSLGDQASISCRSSQNIVHSNGNTYLEWYLQKPGQSPKLLIYKVSNRFSGVPDRFSGSGSGTDFTLKISRVEAEDLGVYYCFQGSHVPFTFGSGTKLEIK
notes: also called mouse anti-UCH-L1 antibody UCH-L1-1
B3: UCH-L1-3 (antibody, V domains shown)
VH: B2 VH with K23R, M34I, P41H, S57I, S66T, A68G, A79V, Q82H, S84I
VL: B2 VL with N28S, R82G, A85T, S105G
notes: also called mouse anti-UCH-L1 antibody UCH-L1-3
B4: UCH-L1-7 (antibody, V domains shown)
VH: EVQLQQSGPELVKPGASVKISCKTSGYTFTEYTMHWVKQSHGKSLDWIGGINPNNGRTSYNQKFKGKATLTVDKSSSTAYMELRSLTSEDSAVYYCARRLGRGFYFDYWGQGTTLTVSS
VL: DIVLTQSPASLAVSLGQRATISCRASESVDSYGNNLMHWYQQKPGQPPKLLIYLSSNLESGIPARFSGRGSRTDFTLTINPVEADDVATYYCQQSNGDPYTFGGGTKLEIK
notes: also called mouse anti-UCH-L1 antibody UCH-L1-7
B5: UCH-L1-6 (antibody, V domains shown)
VH: B4 VH with E82D, L83F
VL: B4 VL with D30E, M37I, P44L, S60P, K111R
notes: also called mouse anti-UCH-L1 antibody UCH-L1-6
B6: UCH-L1-8 (antibody, V domains shown)
VH: B4 VH with E10D, A16T, K43R, D46E, I51L, T78I
VL: B4 VL with P47S, L54R, S55A, A64G
notes: also called mouse anti-UCH-L1 antibody UCH-L1-8
B7: UCH-L1-9 (antibody, V domains shown)
VH: B4 VH with A92T
VL: B4 VL with L36F, I110M
notes: also called mouse anti-UCH-L1 antibody UCH-L1-9
B8: UCH-L1-10 (antibody, V domains shown)
VH: B4 VH with E10D, A16T, K43R, D46E, I51F, A97S, G101Y
VL: B4 VL with P47S, L54R, S55A, A64G, T76S
notes: also called mouse anti-UCH-L1 antibody UCH-L1-10
B9: UCH-L1-4 (antibody, V domains shown)
VH: AVQLQQSGPELVKPGASVKISCKTSGDTFTEHFMNWVKQSHGESLEWIGIINPYTDGTNYDQKFKDKATLTVDKSSSTAYMELRSLTSEDSAVYYCARWGGDGEGYWGQGTTLTVSS
VL: DIVMTQAAPSVSVTPGESVSISCRSSKSLLHSNGNTYLYWFLKRPGQSPQLLIYRMSNLASGVPDRVSGSGSGTAFTLRISRVEAEDVGIYYCMQHLEYPLTFGAGTKLELK
notes: also called mouse anti-UCH-L1 antibody UCH-L1-4
B10: UCH-L1-5 (antibody, V domains shown)
VH: EVKLVESGGGSVQPGGSLSLSCAASGFTFTEYYMSWVRQFPGKALEWLAFIRNRAHGYTTEYSASVKGRFTISRDNSQSILYLQMNALRTEDSATYYCASSYGAPFAYWGQGTLVSVSA
VL: B9 VL with S12P, N33D, K43Q, V67F, I90V
notes: also called mouse anti-UCH-L1 antibody UCH-L1-5; HRP-labeled anti-UCH-L1 detection antibody

The target in the assay is T1, Polyhistidine-tagged recombinant human UCH-L1 expressed from E. coli (human, UniProt P09936 1-223, limits assumed).
T1 construct: also called UCH-L1-His; not shown: polyhistidine tag
T1 sequence (P09936 whole entry): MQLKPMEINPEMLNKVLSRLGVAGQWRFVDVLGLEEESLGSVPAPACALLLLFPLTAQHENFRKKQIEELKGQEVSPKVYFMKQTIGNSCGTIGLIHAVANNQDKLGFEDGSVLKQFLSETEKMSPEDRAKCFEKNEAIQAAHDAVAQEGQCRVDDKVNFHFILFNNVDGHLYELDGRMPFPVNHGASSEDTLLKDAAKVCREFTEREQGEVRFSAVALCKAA
Description: BLI (Octet QKe); His-tagged UCH-L1 on anti-Penta-HIS sensor, antibody in solution. On the procedure:
The rates of association (kₒₙ) and dissociation (koff) of the anti-UCH-L1 antibodies were determined by bio-layer interferometry using an Octet QK^e instrument according to the manufacturer's instructions (ForteBio). See Tobias et al., Biomolecular Binding Kinetic Assays in the Octet Platform, Application Note 14, ForteBio, Div. of Pall Life Sciences, 2013. Polyhistidine-tagged recombinant human UCH-L1 expressed from E. coli was used as the antigen. The antigen was bound at a concentration of […] to an anti-Penta-HIS(HIS1K) capture biosensor containing an anti-histidine antibody (ForteBio) for use with the Octet QK^e instrument.
In general terms: Biolayer interferometry detects binding as a change in optical thickness at a sensor tip.
In the case of B1, the Kd stood at 0.207 nM, the koff came out at 3.01e-05 s⁻¹ and the kon is 146000 M⁻¹ s⁻¹.

Regarding B2, the Kd was under 0.001 nM, the koff is under 1e-07 s⁻¹ and the kon is 58800 M⁻¹ s⁻¹.

For B3, the Kd is 0.367 nM, the koff worked out at 1.34e-05 s⁻¹ and the on-rate constant (kon) came to 36400 M⁻¹ s⁻¹.

As to B4, the equilibrium dissociation constant (Kd) turned out to be 0.0187 nM, the koff turned out to be 2.5e-06 s⁻¹ and the on-rate (kon) is 133000 M⁻¹ s⁻¹.

Regarding B5, the Kd was under 0.001 nM, the koff was determined as 1e-07 s⁻¹ and the association rate constant (kon) came to 145000 M⁻¹ s⁻¹.

As for B6, the Kd is 0.0474 nM, the koff was 6.7e-06 s⁻¹ and the kon is 141000 M⁻¹ s⁻¹.

Take B7: the dissociation constant Kd was found to be 0.0857 nM, the koff was determined as 1.01e-05 s⁻¹ and the kon came to 118000 M⁻¹ s⁻¹.

Regarding B8, the dissociation constant (Kd) was 0.043 nM, the koff was 4.6e-06 s⁻¹ and the kon was 107000 M⁻¹ s⁻¹.

Take B9: the Kd turned out to be 0.0369 nM, the off-rate constant (koff) is 1.4e-05 s⁻¹ and the kon amounted to 378000 M⁻¹ s⁻¹.

For B10, the Kd is under 0.001 nM, the off-rate (koff) came to 1e-07 s⁻¹ and the kon is 459000 M⁻¹ s⁻¹.

As usually defined, the Kd is the concentration at which binding is half-saturated. The term koff denotes the rate constant with which the complex falls apart. The kon is the rate constant with which the complex forms.
